Experimental findings from patent US20250171562A1 are described below.

First the molecules themselves.
B1: NIgG4D2A1(G4S)3 (Fc fusion)
chain 1: DVQLQESGGGLVEAGGSLRLSCVASGRTFSGWSMGWFRQAPGKEREFVAAISWVGSWIGGTVYSNSVKGRFTISRDNARTTVYLQMNSLKPEDTAVYFCAAANSETPRIFASEYDYWGQGTQVTVSGGGGSGGGGSGGGGSGPPCPPCPAPEFLGGPSVFLFPPKPKDTLMISRTPEVTCVVVDVSQEDPEVQFNWYVDGVEVHNAKTKPREEQFNSTYRVVSVLTVLHQDWLNGKEYKCKVSNKGLPSSIEKTISKAKGQPREPQVYTLPPCQEEMTKNQVSLWCLVKGFYPSDIAVEWESNGQPENNYKTTPPVLDSDGSFFLYSRLTVDKSRWQEGNVFSCSVMHEALHNHYTQKSLSLSLGK
chain 2: EVQLLESGGGLVQPGGSLRLSCAASGFTFGNYDMAWVRQAPGKRPEWVSSIDTGGDITHYADSVKGRFTISRDNAKNTLYLQMNSLRPEDTAVYWCATDEEYALGPNEFDYYGQGTLVTVSSGGGGSGGGGSGGGGSGPPCPPCPAPEFLGGPSVFLFPPKPKDTLMISRTPEVTCVVVDVSQEDPEVQFNWYVDGVEVHNAKTKPREEQFNSTYRVVSVLTVLHQDWLNGKEYKCKVSNKGLPSSIEKTISKAKGQPREPQVCTLPPSQEEMTKNQVSLSCAVKGFYPSDIAVEWESNGQPENNYKTTPPVLDSDGSFFLVSRLTVDKSRWQEGNVFSCSVMHEALHNHYTQKSLSLSLGK
B2: CIgG4D2A1(RS) (Fc fusion)
chain 1: GPPCPPCPAPEFLGGPSVFLFPPKPKDTLMISRTPEVTCVVVDVSQEDPEVQFNWYVDGVEVHNAKTKPREEQFNSTYRVVSVLTVLHQDWLNGKEYKCKVSNKGLPSSIEKTISKAKGQPREPQVYTLPPCQEEMTKNQVSLWCLVKGFYPSDIAVEWESNGQPENNYKTTPPVLDSDGSFFLYSRLTVDKSRWQEGNVFSCSVMHEALHNHYTQKSLSLSLGKRSDVQLQESGGGLVEAGGSLRLSCVASGRTFSGWSMGWFRQAPGKEREFVAAISWVGSWIGGTVYSNSVKGRFTISRDNARTTVYLQMNSLKPEDTAVYFCAAANSETPRIFASEYDYWGQGTQVTVS
chain 2: GPPCPPCPAPEFLGGPSVFLFPPKPKDTLMISRTPEVTCVVVDVSQEDPEVQFNWYVDGVEVHNAKTKPREEQFNSTYRVVSVLTVLHQDWLNGKEYKCKVSNKGLPSSIEKTISKAKGQPREPQVCTLPPSQEEMTKNQVSLSCAVKGFYPSDIAVEWESNGQPENNYKTTPPVLDSDGSFFLVSRLTVDKSRWQEGNVFSCSVMHEALHNHYTQKSLSLSLGKRSEVQLLESGGGLVQPGGSLRLSCAASGFTFGNYDMAWVRQAPGKRPEWVSSIDTGGDITHYADSVKGRFTISRDNAKNTLYLQMNSLRPEDTAVYWCATDEEYALGPNEFDYYGQGTLVTVSS
B3: CIgG4D1A1(G4S)3 (Fc fusion)
chain 1: GPPCPPCPAPEFLGGPSVFLFPPKPKDTLMISRTPEVTCVVVDVSQEDPEVQFNWYVDGVEVHNAKTKPREEQFNSTYRVVSVLTVLHQDWLNGKEYKCKVSNKGLPSSIEKTISKAKGQPREPQVYTLPPCQEEMTKNQVSLWCLVKGFYPSDIAVEWESNGQPENNYKTTPPVLDSDGSFFLYSRLTVDKSRWQEGNVFSCSVMHEALHNHYTQKSLSLSLGKGGGGSGGGGSGGGGSDVQLQESGGGLVQAGGSLRLSCAASGLTFSRCDMGWFRQAPGKEREFVARISANGASTHYADFVKGRFTISRDNAKNTVYLQMNYLKPEDTAVYICAAARVPVTWQLYDYWGQGTQVTVS
chain 2: GPPCPPCPAPEFLGGPSVFLFPPKPKDTLMISRTPEVTCVVVDVSQEDPEVQFNWYVDGVEVHNAKTKPREEQFNSTYRVVSVLTVLHQDWLNGKEYKCKVSNKGLPSSIEKTISKAKGQPREPQVCTLPPSQEEMTKNQVSLSCAVKGFYPSDIAVEWESNGQPENNYKTTPPVLDSDGSFFLVSRLTVDKSRWQEGNVFSCSVMHEALHNHYTQKSLSLSLGKGGGGSGGGGSGGGGSEVQLLESGGGLVQPGGSLRLSCAASGFTFGNYDMAWVRQAPGKRPEWVSSIDTGGDITHYADSVKGRFTISRDNAKNTLYLQMNSLRPEDTAVYWCATDEEYALGPNEFDYYGQGTLVTVSS
B4: NIgG4D2A1(G4S)1 (Fc fusion)
chain 1: DVQLQESGGGLVEAGGSLRLSCVASGRTFSGWSMGWFRQAPGKEREFVAAISWVGSWIGGTVYSNSVKGRFTISRDNARTTVYLQMNSLKPEDTAVYFCAAANSETPRIFASEYDYWGQGTQVTVSGGGGSGPPCPPCPAPEFLGGPSVFLFPPKPKDTLMISRTPEVTCVVVDVSQEDPEVQFNWYVDGVEVHNAKTKPREEQFNSTYRVVSVLTVLHQDWLNGKEYKCKVSNKGLPSSIEKTISKAKGQPREPQVYTLPPCQEEMTKNQVSLWCLVKGFYPSDIAVEWESNGQPENNYKTTPPVLDSDGSFFLYSRLTVDKSRWQEGNVFSCSVMHEALHNHYTQKSLSLSLGK
chain 2: EVQLLESGGGLVQPGGSLRLSCAASGFTFGNYDMAWVRQAPGKRPEWVSSIDTGGDITHYADSVKGRFTISRDNAKNTLYLQMNSLRPEDTAVYWCATDEEYALGPNEFDYYGQGTLVTVSSGGGGSGPPCPPCPAPEFLGGPSVFLFPPKPKDTLMISRTPEVTCVVVDVSQEDPEVQFNWYVDGVEVHNAKTKPREEQFNSTYRVVSVLTVLHQDWLNGKEYKCKVSNKGLPSSIEKTISKAKGQPREPQVCTLPPSQEEMTKNQVSLSCAVKGFYPSDIAVEWESNGQPENNYKTTPPVLDSDGSFFLVSRLTVDKSRWQEGNVFSCSVMHEALHNHYTQKSLSLSLGK
B5: NIgG4D2A1(G4S)2 (Fc fusion)
chain 1: DVQLQESGGGLVEAGGSLRLSCVASGRTFSGWSMGWFRQAPGKEREFVAAISWVGSWIGGTVYSNSVKGRFTISRDNARTTVYLQMNSLKPEDTAVYFCAAANSETPRIFASEYDYWGQGTQVTVSGGGGSGGGGSGPPCPPCPAPEFLGGPSVFLFPPKPKDTLMISRTPEVTCVVVDVSQEDPEVQFNWYVDGVEVHNAKTKPREEQFNSTYRVVSVLTVLHQDWLNGKEYKCKVSNKGLPSSIEKTISKAKGQPREPQVYTLPPCQEEMTKNQVSLWCLVKGFYPSDIAVEWESNGQPENNYKTTPPVLDSDGSFFLYSRLTVDKSRWQEGNVFSCSVMHEALHNHYTQKSLSLSLGK
chain 2: EVQLLESGGGLVQPGGSLRLSCAASGFTFGNYDMAWVRQAPGKRPEWVSSIDTGGDITHYADSVKGRFTISRDNAKNTLYLQMNSLRPEDTAVYWCATDEEYALGPNEFDYYGQGTLVTVSSGGGGSGGGGSGPPCPPCPAPEFLGGPSVFLFPPKPKDTLMISRTPEVTCVVVDVSQEDPEVQFNWYVDGVEVHNAKTKPREEQFNSTYRVVSVLTVLHQDWLNGKEYKCKVSNKGLPSSIEKTISKAKGQPREPQVCTLPPSQEEMTKNQVSLSCAVKGFYPSDIAVEWESNGQPENNYKTTPPVLDSDGSFFLVSRLTVDKSRWQEGNVFSCSVMHEALHNHYTQKSLSLSLGK
B6: CIgG4D1A1(G4S)2 (Fc fusion)
chain 1: GPPCPPCPAPEFLGGPSVFLFPPKPKDTLMISRTPEVTCVVVDVSQEDPEVQFNWYVDGVEVHNAKTKPREEQFNSTYRVVSVLTVLHQDWLNGKEYKCKVSNKGLPSSIEKTISKAKGQPREPQVYTLPPCQEEMTKNQVSLWCLVKGFYPSDIAVEWESNGQPENNYKTTPPVLDSDGSFFLYSRLTVDKSRWQEGNVFSCSVMHEALHNHYTQKSLSLSLGKGGGGSGGGGSDVQLQESGGGLVQAGGSLRLSCAASGLTFSRCDMGWFRQAPGKEREFVARISANGASTHYADFVKGRFTISRDNAKNTVYLQMNYLKPEDTAVYICAAARVPVTWQLYDYWGQGTQVTVS
chain 2: GPPCPPCPAPEFLGGPSVFLFPPKPKDTLMISRTPEVTCVVVDVSQEDPEVQFNWYVDGVEVHNAKTKPREEQFNSTYRVVSVLTVLHQDWLNGKEYKCKVSNKGLPSSIEKTISKAKGQPREPQVCTLPPSQEEMTKNQVSLSCAVKGFYPSDIAVEWESNGQPENNYKTTPPVLDSDGSFFLVSRLTVDKSRWQEGNVFSCSVMHEALHNHYTQKSLSLSLGKGGGGSGGGGSEVQLLESGGGLVQPGGSLRLSCAASGFTFGNYDMAWVRQAPGKRPEWVSSIDTGGDITHYADSVKGRFTISRDNAKNTLYLQMNSLRPEDTAVYWCATDEEYALGPNEFDYYGQGTLVTVSS
B7: NIgG4D2A1(RS) (Fc fusion)
chain 1: DVQLQESGGGLVEAGGSLRLSCVASGRTFSGWSMGWFRQAPGKEREFVAAISWVGSWIGGTVYSNSVKGRFTISRDNARTTVYLQMNSLKPEDTAVYFCAAANSETPRIFASEYDYWGQGTQVTVSRSGPPCPPCPAPEFLGGPSVFLFPPKPKDTLMISRTPEVTCVVVDVSQEDPEVQFNWYVDGVEVHNAKTKPREEQFNSTYRVVSVLTVLHQDWLNGKEYKCKVSNKGLPSSIEKTISKAKGQPREPQVYTLPPCQEEMTKNQVSLWCLVKGFYPSDIAVEWESNGQPENNYKTTPPVLDSDGSFFLYSRLTVDKSRWQEGNVFSCSVMHEALHNHYTQKSLSLSLGK
chain 2: EVQLLESGGGLVQPGGSLRLSCAASGFTFGNYDMAWVRQAPGKRPEWVSSIDTGGDITHYADSVKGRFTISRDNAKNTLYLQMNSLRPEDTAVYWCATDEEYALGPNEFDYYGQGTLVTVSSRSGPPCPPCPAPEFLGGPSVFLFPPKPKDTLMISRTPEVTCVVVDVSQEDPEVQFNWYVDGVEVHNAKTKPREEQFNSTYRVVSVLTVLHQDWLNGKEYKCKVSNKGLPSSIEKTISKAKGQPREPQVCTLPPSQEEMTKNQVSLSCAVKGFYPSDIAVEWESNGQPENNYKTTPPVLDSDGSFFLVSRLTVDKSRWQEGNVFSCSVMHEALHNHYTQKSLSLSLGK
B8: CIgG4D1A1(G4S)1 (Fc fusion)
chain 1: GPPCPPCPAPEFLGGPSVFLFPPKPKDTLMISRTPEVTCVVVDVSQEDPEVQFNWYVDGVEVHNAKTKPREEQFNSTYRVVSVLTVLHQDWLNGKEYKCKVSNKGLPSSIEKTISKAKGQPREPQVYTLPPCQEEMTKNQVSLWCLVKGFYPSDIAVEWESNGQPENNYKTTPPVLDSDGSFFLYSRLTVDKSRWQEGNVFSCSVMHEALHNHYTQKSLSLSLGKGGGGSDVQLQESGGGLVQAGGSLRLSCAASGLTFSRCDMGWFRQAPGKEREFVARISANGASTHYADFVKGRFTISRDNAKNTVYLQMNYLKPEDTAVYICAAARVPVTWQLYDYWGQGTQVTVS
chain 2: GPPCPPCPAPEFLGGPSVFLFPPKPKDTLMISRTPEVTCVVVDVSQEDPEVQFNWYVDGVEVHNAKTKPREEQFNSTYRVVSVLTVLHQDWLNGKEYKCKVSNKGLPSSIEKTISKAKGQPREPQVCTLPPSQEEMTKNQVSLSCAVKGFYPSDIAVEWESNGQPENNYKTTPPVLDSDGSFFLVSRLTVDKSRWQEGNVFSCSVMHEALHNHYTQKSLSLSLGKGGGGSEVQLLESGGGLVQPGGSLRLSCAASGFTFGNYDMAWVRQAPGKRPEWVSSIDTGGDITHYADSVKGRFTISRDNAKNTLYLQMNSLRPEDTAVYWCATDEEYALGPNEFDYYGQGTLVTVSS

This test deals with mixture of three Der p 2 specific recombinant human IgE clones H10, H12, P4E (human) (UniProt P01854). The test can be described thus: RBL-SX38 IgE displacement, FACS.
mixture of three Der p 2 specific recombinant human IgE clones H10, H12, P4E (human), sequence (P01854 other isoform, or with tags, fused parts or gaps): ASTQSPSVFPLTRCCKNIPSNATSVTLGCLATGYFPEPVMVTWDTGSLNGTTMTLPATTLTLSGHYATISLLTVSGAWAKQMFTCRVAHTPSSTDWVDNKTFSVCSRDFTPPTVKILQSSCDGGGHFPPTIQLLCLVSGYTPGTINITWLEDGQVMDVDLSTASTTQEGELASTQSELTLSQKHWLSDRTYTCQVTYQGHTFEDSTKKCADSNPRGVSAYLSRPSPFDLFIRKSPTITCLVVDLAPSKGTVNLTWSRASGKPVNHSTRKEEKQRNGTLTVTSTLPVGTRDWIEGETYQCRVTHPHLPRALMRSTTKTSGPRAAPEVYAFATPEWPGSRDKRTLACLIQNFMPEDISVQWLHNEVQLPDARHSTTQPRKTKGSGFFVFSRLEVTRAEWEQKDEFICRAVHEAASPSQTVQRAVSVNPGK
A word on the EC50: it is the concentration needed to bring the measured effect to its halfway point. With B1, the half-maximal effective concentration (EC50) was 3.7 nM and the Max effect/effect 1 µM was 88%. As for B2, the Max effect/effect 1 µM was determined as 6%. For B3, the EC50 stood at 64.6 nM and the Max effect/effect 1 µM was found to be 96%.

Consider B4, for which the EC50 came out at 8.7 nM and the Max effect/effect 1 µM is 97%.

B5: the EC50 came out at 6.3 nM and the Max effect/effect 1 µM is 96%. As to B6, the concentration giving a half-maximal response (EC50) worked out at 87.2 nM and the Max effect/effect 1 µM came out at 96%. The matching figures for B7: 12.3 nM and 97%. The matching figures for B8: 65.8 nM and 96%.
